Results published in article PMC8007570.

B1: FAM 40-mer dsDNA (dsDNA)
DNA 1: GTGTTCGGACTCTGCCTCAAGACGGTAGTCAACGTGCTTG
DNA 2: CAAGCACGTTGACTACCGTCTTGAGGCAGAGTCCGAACAC

Experiments:
[1] = molecular target: Pf MRNBD Y199C (Pyrococcus furiosus, UniProt Q8U1N9;P58301 1-426;1-195+709-882, Y199C;internal_change); experiment: fluorescence polarization; 1 mM MnCl2, 0.1 mM EDTA, no ATP/Mg2+; FP: 25 nM DNA, 50 mM HEPES, 100 mM NaCl, 1 mM MnCl2, 0.1 mM EDTA, 1% glycerol, 1 mM TCEP, 0.1% PEG-6000, pH 7, 15 min room temperature; NMR at 50 C
[2] = molecular target: Pf MRNBD wild type (Mre11 + Rad50 NBD) (Pyrococcus furiosus, UniProt Q8U1N9;P58301 1-426;1-195+709-882, internal_change); experiment: as above

Binder | Kd [1] [nM] | Kd [2] [nM]
B1 | 2500 | 2000
GTGTTCGGACTCTGCCTCAAGACGGTAGTCAACGTGCTTG (ssDNA) [FAM 40-mer ssDNA] | 350 | 310
